Assay results from US20240117073A1, “METHODS OF TREATING NEOPLASTIC ASTROCYTOMA” (Ludwig Institute for Cancer Research Ltd., priority 2009, published 2024).

What was measured:
wtEGFR = target: T1, wtEGFR (Homo sapiens, UniProt P00533); experiment: immunoblotting of cell lysates; type: binding
T1 construct: host or cells: cell lysates

[1] = target: T2, EGFR from U87MG.wtEGFR and A431 cells (Homo sapiens, UniProt P00533); experiment: immunoprecipitation and Endo H digestion; type: binding
T2 construct: expressed in transfected cells; host or cells: U87MG.wtEGFR (transfected with wtEGFR) and A431 (endogenous, amplified gene)
Experimental: This possibility was tested by immunoprecipitating the EGFR from different cells lines labelled overnight with ^35S methionine/cysteine and then subjecting the resultant precipitates to Endoglycosidase H (Endo H) digestion. This enzyme preferentially removes high mannose type carbohydrates (i.e. immature glycosylation) from proteins while leaving complex carbohydrates (i.e. mature glycosylation) intact.

U87MG brain xenografts = experiment: systemic treatment of intracranial xenografts; parameters: species or system nude mice; conditions: mouse, in vivo
Experimental: (§1) U87MG.ΔEGFR cells (1×10^5) or 5×10^5 LN-Z308.ΔEGFR, A1207.ΔEGFR, U87MG, U87MG.DK, and U87MG.wtEGFR cells in 5 μl of PBS were implanted into the right corpus stratum of nude mice brains as described previously (Mishima et al. (2000) A peptide derived from the non-receptor binding region of urokinase plasminogen activator inhibits glioblastoma growth and angiogenesis in vivo in combination with cisplatin. Proc. Natl. Acad. Sci. U.S.A. 97, 8484-8489).

A431 cells = experiment: FACS binding to cell lines; type: cell-based, human
From the text: FACS data was obtained on a Coulter Epics Elite ESP by observing a minimum of 5,000 events and analyzed using EXPO (version 2) for Windows.
As described previously, A431 cells are human squamous carcinoma cells and express high levels of wtEGFR.
The estimates of antibody concentration determined for each sample by the OD Δ280 nm were utilised for FACS analyses with the adenocarcinoma cell line A431 cells (containing EGFR gene amplification). […] Control for secondary antibody alone was also included [Goat anti hu-IgG (Fc specific) FITC conjugated].

[2] = test system: U87MG.DK brain xenografts; experiment: systemic treatment of intracranial xenografts; parameters: species or system nude mice; conditions: mouse, in vivo
Experimental: as §1

[3] = test system: glioblastomas not preselected for their EGFR status; experiment: immunohistochemistry of 46 unselected glioblastomas; parameters: species or system human
Experimental: Immunohistochemical analysis was performed using 5 mm sections of fresh frozen tissue applied to histology slides and fixed for 10 minutes in cold acetone. Bound primary antibody was detected with biotinylated horse anti-mouse antibody followed by an avidin-biotin-complex reaction. Diaminobenzidine tetra hydrochloride (DAB) was used as chromogen. The extent of the immunohistochemical reactivity in tissues was estimated by light microscopy and graded according to the number of immunoreactive cells in 25% increments as follows: • Focal=less than 5% • +=5-25% • ++=25-50% • +++=50-75% • ++++=>75%

B1: mAb806: murine monoclonal antibody recognizing de2-7 EGFR and amplified EGFR; VH SEQ ID NO:2, VL SEQ ID NO:4 (antibody, listed as Mus musculus, V domains shown)
VH: MRVLILLWLFTAFPGVLSDVQLQESGPSLVKPSQSLSLTCTVTGYSITSDFAWNWIRQFPGNKLEWMGYISYSGNTRYNPSLKSRISITRDTSKNQFFLQLNSVTIEDTATYYCVTAGRGFPYWGQGTLVTVSA
VL: MVSTAQFLAFLLLWFPGARCDILMTQSPSSMSVSLGDTVSITCHSSQDINSNIGWLQQRPGKSFKGLIYHGTNLDDEVPSRFSGSGSGADYSLTISSLESEDFADYYCVQYAQFPWTFGGGTKLEIKR
wtEGFR
  reactivity after immunoblotting: bound to the wtEGFR
[1]
  Endo H sensitivity of precipitated EGFR: sensitive to Endo H
U87MG brain xenografts
  effect on survival: did not extend survival
A431 cells
  FACS staining: Low, but highly reproducible, binding
[2]
  effect on survival: did not extend survival
[3]; 46 glioblastomas
  positive cases: 58.7%
  positive cases/cases: 27/46
[3]; case with EGFR Amp. N, A2
  immunohistochemical staining: ++++ (++++=>75%)
[3]; cases with EGFR Amp. A, WT
  immunohistochemical staining: ++++ (++++=>75%)
[3]; cases with EGFR Amp. N, mutation nd
  immunohistochemical staining: neg.
[3]; cases with EGFR Amp. nd, mutation nd
  immunohistochemical staining: neg.
[3]; mAb806: in more than 50% of the tumor
  cases with homogeneous immunoreactivity: 22
